Test results as given in article PMC4512254.
pKd: −log10 of the molar value.

Target: all other cases (NTSR1 nanodisc preparations other than WT in 100% POPC nanodiscs)
Experiment: radioligand binding

For “[3H]NTS ([3,11-tyrosyl-3,5-3H(N)]-neurotensin) (peptide)”, the pKd was 9.30.
